± gives the standard deviation of the averaged measurements.
Assays:
MCF7 = experiment: percentage of EdU-negative (G0-arrested) nuclei per well, 72 h; higher = more G0 arrest; conditions: reference: sequence is the full UniProt precursor, the tested protein was the secreted form or ectodomain
hTERT-HMEC = experiment: as above; conditions: reference: sequence is the full UniProt precursor, the tested protein was the secreted form or ectodomain
[1] = protein concentration 0.02075 µM
[2] = protein concentration 0.2075 µM
[3] = protein concentration 0.03125 µM
[4] = protein concentration 0.3125 µM
[5] = protein concentration 0.01075 µM
[6] = protein concentration 0.1075 µM
[7] = protein concentration 0.0357143 µM
[8] = protein concentration 0.357143 µM
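Note: secreted proteins added to cultured cells, EdU pulse at the end, nuclei found by Hoechst imaging, EdU status from nuclear versus surrounding ring intensity ratio, PBS as neutral control.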

Sequence	percentage of EdU-negative (MCF7; [3]) [%]	percentage of EdU-negative (MCF7; [4]) [%]	percentage of EdU-negative (hTERT-HMEC; [3]) [%]	percentage of EdU-negative (hTERT-HMEC; [4]) [%]	other results
MEKKWKYCAVYYIIQIHFVKGVWEKTVNTEENVYATLGSDVNLTCQTQTVGFFVQMQWSKVTNKIDLIAVYHPQYGFYCAYGRPCESLVTFTETPENGSKWTLHLRNMSCSVSGRYECMLVLYPEGIQTKIYNLLIQTHVTADEWNSNHTIEIEINQTLEIPCFQNSSSKISSEFTYAWSVENSSTDSWVLLSKGIKEDNGTQETLISQNHLISNSTLLKDRVKLGTDYRLHLSPVQIFDDGRKFSCHIRVGPNKILRSSTTVKVFAKPEIPVIVENNSTDVLVERRFTCLLKNVFPKANITWFIDGSFLHDEKEGIYITNEERKGKDGFLELKSVLTRVHSNKPAQSDNLTIWCMALSPVPGNKVWNISSEKITFLLGSEISSTDPPLSVTESTLDTQPSPASSVSPARYPATSSVTLVDVSALRPNTTPQPSNSSMTTRGFNYPWTSSGTDTKKSVSRIPSETYSSSPSGAGSTLHDNVFTSTARAFSEVPTTANGSTKTNHVHITGIVVNKPKDGMSWPVIVAALLFCCMILFGLGVRKWCQYQKEIMERPPPFKPPPPPIKYTCIQEPNESDLPYHEMETL	–	–	–	–	percentage of EdU-negative (MCF7; [1]): 25.5 ± 0.86%; percentage of EdU-negative (MCF7; [2]): 29.5 ± 0.78%; percentage of EdU-negative (hTERT-HMEC; [1]): 4.86 ± 1%; percentage of EdU-negative (hTERT-HMEC; [2]): 12.1 ± 1.3%
MEKLLCFLVLTSLSHAFGQTDMSRKAFVFPKESDTSYVSLKAPLTKPLKAFTVCLHFYTELSSTRGYSIFSYATKRQDNEILIFWSKDIGYSFTVGGSEILFEVPEVTVAPVHICTSWESASGIVEFWVDGKPRVRKSLKKGYTVGAEASIILGQEQDSFGGNFEGSQSLVGDIGNVNMWDFVLSPDEINTIYLGGPFSPNVLNWRALKYEVQGEVFTKPQLWP	24.1 ± 2.6	25.3 ± 0.79	4.41 ± 0.15	5.8 ± 1.1	–
MEKMLAGCFLLILGQIVLLPAEARERSRGRSISRGRHARTHPQTALLESSCENKRADLVFIIDSSRSVNTHDYAKVKEFIVDILQFLDIGPDVTRVGLLQYGSTVKNEFSLKTFKRKSEVERAVKRMRHLSTGTMTGLAIQYALNIAFSEAEGARPLRENVPRVIMIVTDGRPQDSVAEVAAKARDTGILIFAIGVGQVDFNTLKSIGSEPHEDHVFLVANFSQIETLTSVFQKKLCTAHMCSTLEHNCAHFCINIPGSYVCRCKQGYILNSDQTTCRIQDLCAMEDHNCEQLCVNVPGSFVCQCYSGYALAEDGKRCVAVDYCASENHGCEHECVNADGSYLCQCHEGFALNPDKKTCTKIDYCASSNHGCQHECVNTDDSYSCHCLKGFTLNPDKKTCRRINYCALNKPGCEHECVNMEESYYCRCHRGYTLDPNGKTCSRVDHCAQQDHGCEQLCLNTEDSFVCQCSEGFLINEDLKTCSRVDYCLLSDHGCEYSCVNMDRSFACQCPEGHVLRSDGKTCAKLDSCALGDHGCEHSCVSSEDSFVCQCFEGYILREDGKTCRRKDVCQAIDHGCEHICVNSDDSYTCECLEGFRLAEDGKRCRRKDVCKSTHHGCEHICVNNGNSYICKCSEGFVLAEDGRRCKKCTEGPIDLVFVIDGSKSLGEENFEVVKQFVTGIIDSLTISPKAARVGLLQYSTQVHTEFTLRNFNSAKDMKKAVAHMKYMGKGSMTGLALKHMFERSFTQGEGARPLSTRVPRAAIVFTDGRAQDDVSEWASKAKANGITMYAVGVGKAIEEELQEIASEPTNKHLFYAEDFSTMDEISEKLKKGICEALEDSDGRQDSPAGELPKTVQQPTESEPVTINIQDLLSCSNFAVQHRYLFEEDNLLRSTQKLSHSTKPSGSPLEEKHDQCKCENLIMFQNLANEEVRKLTQRLEEMTQRMEALENRLRYR	–	–	–	–	percentage of EdU-negative (MCF7; [5]): 29.2 ± 1.9%; percentage of EdU-negative (MCF7; [6]): 24.3 ± 0.75%; percentage of EdU-negative (hTERT-HMEC; [5]): 5.94 ± 0.34%; percentage of EdU-negative (hTERT-HMEC; [6]): 6.49 ± 0.6%
MELQPPEASIAVVSIPRQLPGSHSEAGVQGLSAGDDSELGSHCVAQTGLELLASGDPLPSASQNAEMIETGSDCVTQAGLQLLASSDPPALASKNAEVTGTMSQDTEVDMKEVELNELEPEKQPMNAASGAAMSLAGAEKNGLVKIKVAEDEAEAAAAAKFTGLSKEELLKVAGSPGWVRTRWALLLLFWLGWLGMLAGAVVIIVRAPRCRELPAQKWWHTGALYRIGDLQAFQGHGAGNLAGLKGRLDYLSSLKVKGLVLGPIHKNQKDDVAQTDLLQIDPNFGSKEDFDSLLQSAKKKSIRVILDLTPNYRGENSWFSTQVDTVATKVKDALEFWLQAGVDGFQVRDIENLKDASSFLAEWQNITKGFSEDRLLIAGTNSSDLQQILSLLESNKDLLLTSSYLSDSGSTGEHTKSLVTQYLNATGNRWCSWSLSQARLLTSFLPAQLLRLYQLMLFTLPGTPVFSYGDEIGLDAAALPGQPMEAPVMLWDESSFPDIPGAVSANMTVKGQSEDPGSLLSLFRRLSDQRSKERSLLHGDFHAFSAGPGLFSYIRHWDQNERFLVVLNFGDVGLSAGLQASDLPASASLPAKADLLLSTQPGREEGSPLELERLKLEPHEGLLLRFPYAA	23.1 ± 0.58	27.1 ± 0.54	5.08 ± 0.89	8.07 ± 1.1	–
MELRARGWWLLCAAAALVACARGDPASKSRSCGEVRQIYGAKGFSLSDVPQAEISGEHLRICPQGYTCCTSEMEENLANRSHAELETALRDSSRVLQAMLATQLRSFDDHFQHLLNDSERTLQATFPGAFGELYTQNARAFRDLYSELRLYYRGANLHLEETLAEFWARLLERLFKQLHPQLLLPDDYLDCLGKQAEALRPFGEAPRELRLRATRAFVAARSFVQGLGVASDVVRKVAQVPLGPECSRAVMKLVYCAHCLGVPGARPCPDYCRNVLKGCLANQADLDAEWRNLLDSMVLITDKFWGTSGVESVIGSVHTWLAEAINALQDNRDTLTAKVIQGCGNPKVNPQGPGPEEKRRRGKLAPRERPPSGTLEKLVSEAKAQLRDVQDFWISLPGTLCSEKMALSTASDDRCWNGMARGRYLPEVMGDGLANQINNPEVEVDITKPDMTIRQQIMQLKIMTNRLRSAYNGNDVDFQDASDDGSGSGSGDGCLDDLCSRKVSRKSSSSRTPLTHALPGLSEQEGQKTSAASCPQPPTFLLPLLLFLALTVARPRWR	27.5 ± 0.42	28.9 ± 2.8	4.85 ± 0.34	28.7 ± 1.6	–
MELWGAYLLLCLFSLLTQVTTEPPTQKPKKIVNAKKDVVNTKMFEELKSRLDTLAQEVALLKEQQALQTVCLKGTKVHMKCFLAFTQTKTFHEASEDCISRGGTLGTPQTGSENDALYEYLRQSVGNEAEIWLGLNDMAAEGTWVDMTGARIAYKNWETEITAQPDGGKTENCAVLSGAANGKWFDKRCRDQLPYICQFGIV	–	–	–	–	percentage of EdU-negative (MCF7; [7]): 23.3 ± 2.7%; percentage of EdU-negative (MCF7; [8]): 26.7 ± 0.6%; percentage of EdU-negative (hTERT-HMEC; [7]): 5.64 ± 0.21%; percentage of EdU-negative (hTERT-HMEC; [8]): 25.4 ± 5%

From the supplement of paper PMC11316812
